We go through three molecules from patent US20020045564A1, “Methods of modulating muscle contraction” (priority 1997, published 2002).

One assay has as its target T1, cardiac LC20 (Homo sapiens, UniProt P10916).
T1 construct: using isolated cardiac myofibrils and associated proteins; from tissue
T1 sequence (P10916 1-166): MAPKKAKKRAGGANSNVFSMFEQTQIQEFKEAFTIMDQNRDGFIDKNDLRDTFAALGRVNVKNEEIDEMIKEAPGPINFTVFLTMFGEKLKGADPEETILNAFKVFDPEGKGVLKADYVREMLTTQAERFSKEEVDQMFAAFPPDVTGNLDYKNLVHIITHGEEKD
The assay is described as follows: In vitro phosphorylation of cardiac LC20. It counts as biochemical. On the procedure:
In vitro phosphorylation of intact smooth, skeletal, cardiac, platelet, and Dictyostelium myosin and isolated LC20, caldesmon, and caldesmon fragments, and cardiac and skeletal Tn were carried out at 25° C. in 10 mM Tris, pH 7.0, 50 mM sodium chloride, 1 mM [γ^32P]ATP (5×10^5 cpm per nmol) or at 37° C. in the same buffer except containing 150 mM sodium chloride. Aliquots of the reaction mixture were analyzed for protein phosphorylation using Whatman P81 paper and SDS-gel electrophoresis/autoradiography as previously described (Childs, T. J. et al. 1992. J. Biol. Chem. 267:22853-22859). In the case of cardiac and skeletal Tn, the three Tn subunits (TnI, TnT, and TnC) were separated by reversed phase HPLC. The individual subunits were analyzed for incorporation of ^32P (i.e., phosphorylation by PAK) by SDS-PAGE and autoradiography and direct counting.
Phosphorylated amino acids were identified by thin-layer electrophoresis after partial hydrolysis of the phosphorylated proteins in 6 N hydrochloric acid as previously described (Childs, T. J. et al. 1992. J. Biol. Chem. 267:22853-22859; Mak, A. S. et al. 1991. J. Biol. Chem. 266:19971-19975; Mak, A. S. et al. 1991. J. Biol. Chem. 266:6678-6681). […]

Another assay concerns actin-tropomyosin. The assay is described as follows: Actin-tropomyosin binding assay (centrifugation). Conditions: FIG. 5. The procedure: To quantitate the amount of smooth muscle caldesmon and smooth muscle tropomyosin bound to the skeletal actin thin filament (>95% amino acid homology to smooth muscle actin), centrifugation studies were carried out in binding buffer consisting of 20 mM Tris-HCl pH 7.2, 10 mM KCl, 5 mM MgCl2 and 1 mM DTT. The concentration of actin was 5 nmole/200 μl (˜25 μM) and the mole ratio of actin to tropomyosin was 7:2. Increasing quantities of unphosphorylated or phosphorylated caldesmon were added to the actin-tropomyosin mixture. Protein concentrations were determined by the Lowry method or by absorbance at 280 nm. Samples were spun for 30 min at approximately 95,000 rpm, resulting in the pelleting of over 95% of the actin. The obtained pellets were dissolved in 100 μl of 0.05% aqueous trifluroacetic acid (TFA) and injected on a Zorbax C8 SB300 reversed-phase column (4.6 mm×250 mm) on a Varian HPLC system (Star series). The various proteins were eluted using a 2% B/min linear A/B gradient with a 5 min initial isocratic hold, where solvent A is 0.05% aqueous TFA and solvent B is 0.05% TFA in acetonitrile. The flow rate was 1 ml/min. The peak areas were determined at 210 nm and converted to nanomoles using a standard curve obtained for each protein. […] The experiments were done in triplicate and the standard deviation calculated.

Assay [1] addresses smooth muscle myosin ATPase (Gallus gallus, UniProt P02607+P10587). The assay is described as follows: Actin-tropomyosin activated ATPase activity of smooth muscle subfragment 1 (S1). It counts as biochemical. Conditions: FIG. 6. On the procedure: Reactions consisted of 10 μM actin, 2 μM tropomyosin, 0.5 μM S1, and variable concentrations of unphosphorylated and phosphorylated caldesmon. The buffer contained 40 mM Tris-HCl pH 7.8, 50 mM KCl, 5 mM MgCl2, 1 mM DTT at 37° C. Reactions were performed in a 96 well microtitre plate, triggered by the addition of 4 mM ATP. The phosphate assay was performed according to the method of Chifflet, S. et al. 1988. (Anal. Biochem. 168:1-4). Briefly, reactions were terminated by the addition of an equal volume (100 μL) of reagent which contained 6% (w/v) SDS, 3% (w/v) ascorbic acid, 1M HCl, 0.5% (w/v) ammonium molybdate. The mixture was incubated for 5 minutes prior to the addition of a second reagent which contained 2% sodium citrate, 2% sodium m-arsenite, and 2% acetic acid. Blue colour developed quickly over 5 minutes. Microtitre plates were read at 650 nm on an E-max ELISA plate reader (Molecular Dynamics, Sunnyvale Calif.). Phosphate was determined by comparing experimental values to standard phosphate values obtained through dilution of phosphate-buffered saline (PBS).

Chain of smooth muscle myosin ATPase (P10587 84-789 limits assumed): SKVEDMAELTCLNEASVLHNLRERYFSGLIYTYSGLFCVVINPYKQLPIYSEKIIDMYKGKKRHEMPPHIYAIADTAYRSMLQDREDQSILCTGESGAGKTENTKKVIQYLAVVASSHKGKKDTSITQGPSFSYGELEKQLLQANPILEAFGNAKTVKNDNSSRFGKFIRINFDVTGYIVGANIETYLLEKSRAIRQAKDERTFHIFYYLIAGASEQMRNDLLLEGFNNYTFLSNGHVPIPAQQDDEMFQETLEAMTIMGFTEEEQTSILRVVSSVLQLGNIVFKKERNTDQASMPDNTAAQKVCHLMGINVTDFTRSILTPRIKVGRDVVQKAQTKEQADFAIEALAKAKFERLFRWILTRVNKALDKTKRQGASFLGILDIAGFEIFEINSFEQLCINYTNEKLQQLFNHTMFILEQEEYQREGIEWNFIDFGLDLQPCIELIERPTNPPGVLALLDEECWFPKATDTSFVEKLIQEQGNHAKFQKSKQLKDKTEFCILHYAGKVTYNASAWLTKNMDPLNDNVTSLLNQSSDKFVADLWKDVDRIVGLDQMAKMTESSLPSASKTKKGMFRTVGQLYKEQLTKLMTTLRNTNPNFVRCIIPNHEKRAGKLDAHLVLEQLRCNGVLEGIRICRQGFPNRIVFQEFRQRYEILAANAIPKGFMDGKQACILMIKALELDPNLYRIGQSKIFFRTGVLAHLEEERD
Chain of smooth muscle myosin ATPase (P02607 2-151 limits assumed): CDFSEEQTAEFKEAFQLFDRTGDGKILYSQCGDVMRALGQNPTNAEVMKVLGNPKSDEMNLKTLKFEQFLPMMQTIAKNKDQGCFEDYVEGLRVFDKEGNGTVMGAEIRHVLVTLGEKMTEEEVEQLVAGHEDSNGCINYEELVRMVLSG

As for “MLCK: myosin light chain kinase purified from chicken gizzard”, the “phosphorylation of cardiac LC20” value in the assay with cardiac LC20 was 0.2 mol phosphate per mol protein.

B1: PAK-phosphorylated caldesmon: caldesmon phosphorylated by PAK (protein, UniProt P12957 1-771, looked up)
Caldesmon: MDDFERRRELRRQKREEMRLEAERLSYQRNDDDEEEAARERRRRARQERLRQKEEGDVSGEVTEKSEVNAQNSVAEEETKRSTDDEAALLERLARREERRQKRLQEALERQKEFDPTITDGSLSVPSRREVNNVEENEITGKEEKVETRQGRCEIEETETVTKSYQRNNWRQDGEEEGKKEEKDSEEEKPKEVPTEENQVDVAVEKSTDKEEVVETKTLAVNAENDTNAMLEGEQSITDAADKEKEEAEKEREKLEAEEKERLKAEEEKKAAEEKQKAEEEKKAAEERERAKAEEEKRAAEERERAKAEEERKAAEERERAKAEEERKAAEERAKAEEERKAAEERAKAEEERKAAEERAKAEKERKAAEERERAKAEEEKRAAEEKARLEAEKLKEKKKMEEKKAQEEKAQANLLRKQEEDKEAKVEAKKESLPEKLQPTSKKDQVKDNKDKEKAPKEEMKSVWDRKRGVPEQKAQNGERELTTPKLKSTENAFGRSNLKGAANAEAGSEKLKEKQQEAAVELDELKKRREERRKILEEEEQKKKQEEAERKIREEEEKKRMKEEIERRRAEAAEKRQKVPEDGVSEEKKPFKCFSPKGSSLKIEERAEFLNKSAQKSGMKPAHTTAVVSKIDSRLEQYTSAVVGNKAAKPAKPAASDLPVPAEGVRNIKSMWEKGNVFSSPGGTGTPNKETAGLKVGVSSRINEWLTKTPEGNKSPAPKPSDLRPGDVSGKRNLWEKQSVEKPAASSSKVTATGKKSETNGLRQFEKEP
modifications: phosphorylated by PAK
Consider B1, for which the “change in affinity of caldesmon for actin(-tropomyosin), phosphorylated vs unphosphorylated” value in the assay with actin-tropomyosin was “approximately two-fold reduction”. The “inhibition of smooth muscle myosin ATPase activity” value in assay [1] was “inhibition was clearly released”.

B2: caldesmon: unphosphorylated smooth muscle caldesmon purified from chicken gizzard (protein, UniProt P12957 1-771, looked up)
Caldesmon: MDDFERRRELRRQKREEMRLEAERLSYQRNDDDEEEAARERRRRARQERLRQKEEGDVSGEVTEKSEVNAQNSVAEEETKRSTDDEAALLERLARREERRQKRLQEALERQKEFDPTITDGSLSVPSRREVNNVEENEITGKEEKVETRQGRCEIEETETVTKSYQRNNWRQDGEEEGKKEEKDSEEEKPKEVPTEENQVDVAVEKSTDKEEVVETKTLAVNAENDTNAMLEGEQSITDAADKEKEEAEKEREKLEAEEKERLKAEEEKKAAEEKQKAEEEKKAAEERERAKAEEEKRAAEERERAKAEEERKAAEERERAKAEEERKAAEERAKAEEERKAAEERAKAEEERKAAEERAKAEKERKAAEERERAKAEEEKRAAEEKARLEAEKLKEKKKMEEKKAQEEKAQANLLRKQEEDKEAKVEAKKESLPEKLQPTSKKDQVKDNKDKEKAPKEEMKSVWDRKRGVPEQKAQNGERELTTPKLKSTENAFGRSNLKGAANAEAGSEKLKEKQQEAAVELDELKKRREERRKILEEEEQKKKQEEAERKIREEEEKKRMKEEIERRRAEAAEKRQKVPEDGVSEEKKPFKCFSPKGSSLKIEERAEFLNKSAQKSGMKPAHTTAVVSKIDSRLEQYTSAVVGNKAAKPAKPAASDLPVPAEGVRNIKSMWEKGNVFSSPGGTGTPNKETAGLKVGVSSRINEWLTKTPEGNKSPAPKPSDLRPGDVSGKRNLWEKQSVEKPAASSSKVTATGKKSETNGLRQFEKEP
With B2, the “inhibition of smooth muscle myosin ATPase activity” value in assay [1] is on record as “inhibited”.
